What was measured:
[1] = target: cynomolgus FcγRI (cynomolgus); test: SPR, receptor captured by anti-his, antibody injected, 1:1 fit
[2] = target: human FcγRIIIa 158F allele (human) (UniProt P08637); test: as above
[3] = target: human FcγRIIIa 158V allele (human) (UniProt P08637); test: as above
[4] = target: cynomolgus FcγRIII (cynomolgus) (UniProt Q8SPW2); test: as above
human FcγRI (human) = human FcγRI (human) (UniProt P12314); test: as above
human FcγRIIa (human) = human FcγRIIa (human) (UniProt P12318); test: SPR, receptor captured by anti-his, antibody injected, steady-state fit
[5] = target: cynomolgus FcγRIIb (cynomolgus); test: as above
[6] = target: cynomolgus FcγRIIa (cynomolgus); test: as above
human FcγRIIb/c (human) = human FcγRIIb/c (human) (UniProt P31994); test: as above
Chain of human FcγRIIb/c (human) (P31994 46-217 limits assumed): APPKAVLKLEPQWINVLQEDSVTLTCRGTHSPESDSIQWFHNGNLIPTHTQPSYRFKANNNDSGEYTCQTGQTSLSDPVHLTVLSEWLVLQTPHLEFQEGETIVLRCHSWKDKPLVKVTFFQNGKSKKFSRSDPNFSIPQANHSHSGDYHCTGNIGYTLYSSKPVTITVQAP

Chain of human FcγRI (human) (P12314 16-288 limits assumed): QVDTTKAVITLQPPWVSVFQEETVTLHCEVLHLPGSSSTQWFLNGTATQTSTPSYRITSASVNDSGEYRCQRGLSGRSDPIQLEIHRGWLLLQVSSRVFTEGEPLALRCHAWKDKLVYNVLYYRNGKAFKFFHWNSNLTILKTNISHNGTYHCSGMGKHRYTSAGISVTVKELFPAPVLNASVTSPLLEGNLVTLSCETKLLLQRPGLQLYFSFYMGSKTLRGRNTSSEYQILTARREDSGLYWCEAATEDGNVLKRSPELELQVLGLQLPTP
Chain of human FcγRIIa (human) (P12318 36-218 limits assumed): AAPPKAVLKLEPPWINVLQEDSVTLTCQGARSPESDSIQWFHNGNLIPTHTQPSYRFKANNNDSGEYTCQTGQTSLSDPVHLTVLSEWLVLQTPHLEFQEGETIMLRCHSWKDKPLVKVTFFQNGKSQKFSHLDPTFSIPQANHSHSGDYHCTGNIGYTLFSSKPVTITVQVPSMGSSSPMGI
Chain of cynomolgus FcγRIII (cynomolgus) (Q8SPW2 17-208 limits assumed): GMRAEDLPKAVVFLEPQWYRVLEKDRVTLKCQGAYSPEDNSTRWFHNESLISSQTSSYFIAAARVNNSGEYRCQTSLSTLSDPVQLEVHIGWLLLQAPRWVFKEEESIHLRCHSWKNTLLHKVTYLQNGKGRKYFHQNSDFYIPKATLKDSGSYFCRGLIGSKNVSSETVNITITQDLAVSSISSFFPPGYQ
Chain of human FcγRIIIa 158V allele (human) (P08637 17-208 F176V limits assumed): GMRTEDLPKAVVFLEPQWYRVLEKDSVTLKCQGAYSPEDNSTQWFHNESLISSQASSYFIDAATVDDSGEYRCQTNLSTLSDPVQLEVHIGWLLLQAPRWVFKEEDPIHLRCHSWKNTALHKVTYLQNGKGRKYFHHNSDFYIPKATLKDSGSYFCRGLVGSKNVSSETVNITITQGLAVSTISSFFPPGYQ
Chain of human FcγRIIIa 158F allele (human) (P08637 17-208 limits assumed): as the sequence (P08637 17-208 F176V limits assumed) above, with V160F counted along it

Fold increase in binding (vs wt IgG1 control) [1]: 1 fold
Kd [1]: 0.0015 µM
Kd [2]: 3.78 µM
Kd [3]: 0.905 µM
Kd [4]: 0.395 µM
Fold increase in binding (vs wt IgG1 control) (human FcγRI (human)): 1 fold
Kd (human FcγRI (human)): 0.0029 µM
Fold increase in binding (vs wt IgG1 control) (human FcγRIIa (human)): 1 fold
Kd (human FcγRIIa (human)): 9.33 µM
Fold increase in binding (vs wt IgG1 control) [5]: 1 fold
Kd [5]: 4.45 µM
Fold increase in binding (vs wt IgG1 control) [6]: 1 fold
Kd [6]: 8.15 µM
Fold increase in binding (vs wt IgG1 control) (human FcγRIIb/c (human)): 1 fold
Kd (human FcγRIIb/c (human)): 11.2 µM
Substance: wt IgG1 control (antibody)
